Source: patent publication US20040087013, “Stable macroscopic membranes formed by self-assembly of amphiphilic peptides and uses therefor” (published 2004)

Molecular target: T1, zuotin (ZUO1), yeast-purified fractions (Saccharomyces cerevisiae, UniProt P32527 SEQ:1-433)
T1 sequence: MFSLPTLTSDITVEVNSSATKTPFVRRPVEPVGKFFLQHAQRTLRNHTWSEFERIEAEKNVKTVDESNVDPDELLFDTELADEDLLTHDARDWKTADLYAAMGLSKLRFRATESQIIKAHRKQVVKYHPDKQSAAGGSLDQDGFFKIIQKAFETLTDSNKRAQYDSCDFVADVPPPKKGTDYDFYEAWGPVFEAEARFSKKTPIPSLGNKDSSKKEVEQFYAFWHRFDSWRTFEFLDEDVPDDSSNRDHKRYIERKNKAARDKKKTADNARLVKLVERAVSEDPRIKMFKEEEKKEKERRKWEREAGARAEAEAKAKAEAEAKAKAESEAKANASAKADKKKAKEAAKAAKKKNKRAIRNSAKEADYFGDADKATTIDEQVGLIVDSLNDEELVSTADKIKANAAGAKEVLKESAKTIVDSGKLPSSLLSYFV
Experiment: EMSA; fraction FI; 2000-fold excess salmon sperm DNA
Settings: tags: none; label: 32P; left-handed Z-DNA, 44mer alternating dG-Br5dC
From the text: In order to determine if these band shifts were the result of authentic Z-DNA binding, negatively supercoiled plasmids of pUC19 and pUC19(GC) were used as competitor DNAs in gel retardation competition assays.
A gel retardation assay was employed to detect proteins with affinity to left-handed Z-DNA. In these assays, two kinds of left-handed DNA probes were used. […] The other probe was derived from a synthetic 44mer oligo(dG-Br⁵dC)₂₂, labelled using Klenow polymerase with [α-³²P]dGTP, and stabilized in the Z-DNA conformation by 10 mM MgCl₂, or 0.1 mM Co(NH₃)₆³⁺. […] In the competition assays, supercoiled pUC19 and pUC19(CG) were added to the reaction samples separately. […] After electrophoresis, the gel was dried and exposed to X-ray film.

B1: oligo (dG-Br5dC)22 Z-form (dsDNA)
DNA 1: GCGCGCGCGCGCGCGCGCGCGCGCGCGCGCGCGCGCGCGCGCGC
DNA 2: B1 DNA 1
modifications: 5-bromo-dC at all C [5-bromo-dC at all C (2,4,6,8,10,12,14,16,18,20,22,24,26,28,30,32,34,36,38,40,42,44 of each strand)]
binding result: binds
